Test results reported in patent US20010029034A1.

Legend:
[1] = biological target: Trypsin (Sigma); test: cell-based or functional assay
[2] = test system: His-tagged Cripto (a TGF-a family member)
[3] = test system: T1, first Kunitz-type domain of the TFPI-3 protein (TFPI-3-1), His-tagged, expressed in E. coli
T1 sequence: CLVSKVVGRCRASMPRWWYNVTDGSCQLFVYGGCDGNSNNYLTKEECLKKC

| Substance | trypsin activity inhibited, 5.00 dose of TFPI-3-1 [1] [%] | trypsin activity left against buffer only samples, 10 of TFPI-3-1, duplicate samples [1] [%] | trypsin activity left against the buffer-only control, 10.00 dose of TFPI-3-1 [1] [%] | trypsin activity on TAME substrate, same concentrations of Cripto as control [2] | trypsin activity on TAME substrate (absorbance at 247 nm), 1.25 dose of TFPI-3-1 [3] | trypsin activity on TAME substrate (absorbance at 247 nm), 2.50 dose of TFPI-3-1 [3] |
| --- | --- | --- | --- | --- | --- | --- |
| first Kunitz-type domain of the TFPI-3 protein (TFPI-3-1), His-tagged, expressed in E. coli (from UniProt O43291 38-88) | 60 | 7 | 13 | – | – | – |
| Trypsin (Sigma) | – | – | – | no trypsin inhibiting activity could be observed | did not appear to inhibit trypsin activity at 1.25 and 2.50 mg doses | did not appear to inhibit trypsin activity at 1.25 and 2.50 mg doses |
